Test results from patent publication US7449443B2, “Method for stabilization of proteins using non-natural amino acids” (California Institute of Technology, priority 2000, dated 2008).

Tests used:
[1] = test system: E. coli leucine auxotroph SG13009; test: Analog incorporation assay: A1 expression in leucine auxotroph; type: cell-based; details: leucine-free medium supplemented with analog, western blot
Procedure: Analog Incorporation Assay. The expression vector pQE-A1, which contains the coding sequences for the protein A1 (FIG. 4A) was obtained from US Army Natick RD&E Center (Natick, Mass.). The E. coli leucine auxotroph SG13009 was obtained from Qiagen (Chatsworth, Calif.) and transformed with plasmids pREP4 and pQE-A1, to yield the expression host […] medium (30 ml) supplemented with 1 mM MgSO4, 1 mM CaCl2, […], 1 mg/L thiamin and the antibiotics ampicillin (200 mg/L) and kanamycin (25 mg/L) were inoculated with 1 ml of an overnight 2×YT culture of the expression strain. […] The supernatant was removed and the cell pellets were washed with 0.9% NaCl and sedimented (5000 g, 10 min, 4° C.). The washing and sedimentation steps were repeated three times to remove residual leucine. The washed cells were then resuspended in 31 ml of supplemented […] medium, without leucine. Aliquots (5 ml) were added to test tubes containing no leucine (negative control), L-leucine (20 mg/L, positive control), DL-trifluoroleucine (40 mg/L) or DL-hexafluoroleucine (40 mg/L). The cultures were grown for 10 min at 37° C., and isopropyl-β-D-thiogalactopyranoside (IPTG) was added to a final concentration of 1 mM. […] The whole cell lysate was analyzed by 15% SDS-PAGE. The proteins were detected by western blotting with an antibody specific for the N-terminal His-Tag of A1 (FIG. 4B).

LeuRS = LeuRS (Escherichia coli, UniProt P07813); test: Level of Tfl incorporation versus leucine concentration in expression medium; type: cell-based, E. coli; details: estimated from 50% substitution at leucine 8 mg/L (50 μM) and Tfl (DL) 100 mg/L (540 μM)
Chain of LeuRS (P07813 whole entry): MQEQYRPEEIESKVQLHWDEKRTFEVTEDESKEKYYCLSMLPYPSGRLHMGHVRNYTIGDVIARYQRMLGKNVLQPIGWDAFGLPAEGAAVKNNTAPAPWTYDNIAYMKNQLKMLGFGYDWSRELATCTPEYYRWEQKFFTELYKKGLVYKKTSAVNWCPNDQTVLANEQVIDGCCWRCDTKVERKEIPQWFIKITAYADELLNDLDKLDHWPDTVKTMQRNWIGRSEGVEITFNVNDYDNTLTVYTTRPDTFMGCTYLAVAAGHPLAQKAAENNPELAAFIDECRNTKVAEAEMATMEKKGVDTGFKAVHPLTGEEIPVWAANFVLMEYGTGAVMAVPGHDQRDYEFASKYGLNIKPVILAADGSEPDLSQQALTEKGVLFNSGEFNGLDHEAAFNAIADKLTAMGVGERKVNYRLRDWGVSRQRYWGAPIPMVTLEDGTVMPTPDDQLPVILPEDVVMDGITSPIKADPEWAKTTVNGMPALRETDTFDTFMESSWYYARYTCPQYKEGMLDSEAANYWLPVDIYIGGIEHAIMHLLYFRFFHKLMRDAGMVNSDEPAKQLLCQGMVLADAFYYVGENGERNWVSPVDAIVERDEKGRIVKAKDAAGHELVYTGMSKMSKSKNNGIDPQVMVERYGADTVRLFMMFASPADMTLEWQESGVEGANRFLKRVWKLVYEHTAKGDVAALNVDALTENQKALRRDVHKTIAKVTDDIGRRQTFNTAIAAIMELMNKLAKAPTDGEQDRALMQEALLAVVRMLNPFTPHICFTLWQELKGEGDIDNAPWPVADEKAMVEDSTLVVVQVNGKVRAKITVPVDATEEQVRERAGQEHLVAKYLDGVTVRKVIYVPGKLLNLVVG
Procedure: Normal leucine concentration in expression medium is 40 mg/L. The extent of incorporation is determined by amino acid analysis.
Protein Expression and Purification. M9 medium (1 L) supplemented as described above was inoculated with 30 ml of fresh overnight culture of the expression strain. After the culture had grown to OD600 of 1.0, it was subjected to centrifugation and washing procedures as described above. The cell pellet was suspended in 1 L M9 medium supplemented with trifluoroleucine (100 mg/L) and leucine in appropriate concentrations. IPTG was added after 10 min to induce protein expression. The expression of protein was monitored by removing an aliquot (1 ml) of the culture every hour and analyzing by SDS-PAGE. Cells were collected after 3 hr by centrifugation (5000 g, 15 min, 4° C.). The pellets were resuspended in 20 ml of buffer A and stored at −80° C. overnight. […] Extent of trifluoroleucine incorporation was determined by amino acid analysis (DNA/Protein Analysis Facility, Cornell University) and MALDI mass spectrometry (Protein/Peptide Micro Analytical Laboratory, Caltech).
The degree of substitution is determined through the diminution of leucine mole fractions from amino acid analysis (AAA). […]

[2] = CD thermal unfolding of GCN4-p1 coiled-coil peptides; type: physicochemical
Procedure: (§1) Circular Dichroism (CD) Analysis. CD spectra were recorded on an Aviv 62DS spectropolarimeter (Lakewood, N.J.) in PBS buffer, pH 7.4. All peptide concentrations were determined by amino acid analysis of a stock solution (5 mg/ml). Experiments were performed in a rectangular cell with pathlength of 1 cm for low concentration samples and pathlength of 1 mm for high concentration samples. Spectra were scanned from 250 nm to 200 nm with data taken every 1 nm. The temperature of the solution was maintained by a thermostatically controlled cuvette holder (HP model 89101A). Temperature scans were performed from 0° C. to 100° C. in 1° C. steps. Three scans were performed on a single sample and averaged. Each data point was collected after 30 seconds of thermal equilibration at the desired temperature. Urea titration scans were performed manually starting with the 8 M concentrated sample followed by serial dilution to the desired urea concentration. At each concentration, the sample was allowed to equilibrate for 5 min before recording the CD signal.
(§2) The analysis of CD thermal melting data was performed according to a previously described procedure using a two-state model (Schneider, J. P.; Lear, J. D.; DeGrado, W. F. J. Am. Chem. Soc. 1997, 119, 5742-5743). Temperature-dependent ellipticity data for each protein at different concentrations were fitted globally using a non-linear least-squares fitting procedure supplied with the Origin 6.0 software. For wild-type A1, the concentrations used for curve fitting were 10 and 100 μM, while 2 and 100 μm were used to fit data for the 92% fluorinated A1. The thermodynamic quantities Tm, ΔHm, ΔCp and Kd were parameters of the fitting procedure and are reported in the 1 M standard state. The free energy of folding at any temperature is given by equation 1. ΔG°=ΔHm(1−T/Tm)−ΔCp((Tm−T)+T1n(T/Tm) (1)
The thermal stabilities of the coiled-coil dimers of Leu-GCN4-p1 and Tfl-GCN4-p1 were examined by CD spectroscopy (FIG. 2B). A significant increase in the thermal stability of Tfl-GCN4-p1 as compared to Leu-GCN4-p1 is reflected in an elevation of the thermal denaturation temperature from 48° C. to 61° C. The 13° C. increase in Tm is remarkable in view of the fact that no increase in the thermal stability of GCN4-p1 has been reported based solely on substitution of the leucine residues at the d-positions. […] As expected for a monomer-dimer equilibrium, the denaturation curves depend on the peptide concentrations, and their midpoints shift to higher temperature as the concentrations of peptides are increased (FIG. 2C). The thermodynamic changes associated with the transition (folded dimer to unfolded monomers) is calculated from the melting curves by fitting the data to a monomer-dimer equilibrium (J. P. Schneider, J. D. Lear and W. F. DeGrado, J. Am. Chem. Soc. 119, 5742, 1997). Global analysis of the thermal unfolding curves at two different concentrations, approximately 85 μM and 3 μM, gave a calculated ΔH° of 60.2 kcal mol^−1, Tm of 385.4 K and ΔCp of 530 cal mol^−1 K^−1 for Tfl-GCN4-p1 (1 M standard state); the corresponding values for Leu-GCN4-p1 are 70.3 kcal mol^−1, 365.6 K and 740 cal mol^−1 K^−1 respectively.

[3] = molecular target: oligonucleotides containing the AP-1 binding site; test: Mobility shift (gel-retardation) assay, AP-1; details: densitometry analysis of mobility shift assay
Text: (§3) (FIG. 3B) Leu-bZip binds to both the AP-1 and CREB binding sites with equal affinities even though the spacing between the half-sites of DNA is different.

[4] = molecular target: oligonucleotides containing the CREB binding site; test: Mobility shift (gel-retardation) assay, CREB; details: densitometry analysis of mobility shift assay
Text: as §3

[5] = test system: nonspecific sequence (NON) oligonucleotides; test: Mobility shift (gel-retardation) assay, nonspecific sequence; type: binding
Text: as §3

[6] = Urea titration of A1 proteins by CD; type: physicochemical; details: 0° C., 10 μM protein, PBS, pH 7.4
Procedure: The fraction of unfolded protein is plotted against increasing urea concentration. Insert: The urea concentration at which 50% of protein is denatured is plotted against the extent of fluorination. (10 μM protein concentration, PBS buffer, pH 7.4).
as §1

[7] = CD thermal denaturation of A1 proteins with two-state global fitting; type: physicochemical; details: for ΔCp (1M) heat capacity change upon folding: 1M standard state, uncertainty 120; for ΔHm (1M) enthalpy of folding: at midpoint temperature, extrapolated to 1M standard state, uncertainty 4.8; for Tm (1M): extrapolated to 1M standard state by non-linear least square fit, uncertainty ± 1.5° C.; for Tm (10 μM): midpoint of thermal denaturation curve at 10 μM protein
Procedure: Insert: The thermal melting temperature (Tm) plotted as a function of level of incorporation. Tm is defined as the temperature at which 50% of the peptide has unfolded. The stability of the protein increases with increasing level of 2trifluoroleucine substitution. (10 μM protein concentration, PBS buffer, pH 7.4).
as §1, §2
Global thermodynamic fitting was used to obtain the thermodynamic quantities associated with the monomer to dimer transition for A1-WT and FA1-92. The intermediate level fluorinated proteins, FA1-17 and FA1-29 were not fitted using the procedure because the heterogeneity of the samples would not be described accurately by the two-state model. The presence of a heterogeneous population can be seen from the broadening of the thermal melting curves at substitution rates of 17 and 29%. However, even for the nearly completely substituted FA1-92, the protein sample was still a mixed population because Tfl was used as an equal molar mixture of (2S, 4S) and (2S, 4R) diastereomers. The free energy of unfolding for FA1-92 was 2.4 kcal/mol more favorable than A1-WT at 37° C., which corresponded to 0.4 kcal/mol of stabilizing energy per Tfl molecule involved at the helix interface. Considering the large number of leucines packed in the hydrophobic core of proteins, the additive stabilizing effects of Tfl can be quite substantial.

[8] = global analysis of thermal unfolding curves, 1 M standard state

With `N[C@@H](CC(C(F)(F)F)C(F)(F)F)C(=O)O` [Hfl, 5,5,5,5′,5′,5′-hexafluoroleucine] the “ability to support protein synthesis (A1 expression)” value [1] was “does not support measurable protein synthesis”.

With `CC(C[C@H](N)C(=O)O)C(F)(F)F` (stereo partly shown) [Tfl, 5,5,5-trifluoroleucine] the “ability to support protein synthesis (A1 expression)” value [1] was “support protein synthesis” and the “specificity for LeuRS compared to leucine” value (LeuRS) was “reduced five times”.

With “Leu-GCN4-p1: wild type form of the leucine zipper peptide GCN4-p1, not acylated at the N-terminus [reference compound]” the “thermal denaturation temperature (Tm)” value ([2]; CD spectroscopy, coiled-coil dimers) was 48 °C, the “ΔH°” value ([2]; global analysis of thermal unfolding curves at approximately 85 μM and 3 μM, 1 M standard state) was 70.3 kcal/mol and the Tm [2, 8] was 92.5 °C. It also gave a ΔCp [2, 8] of 740 cal mol^−1 K^−1.

For “Leu-bZip: wild-type 56 amino acid segment (residues 226-281) of the eukaryotic transcription factor GCN4”, the Kd [3] was 12.8 ± 1 nM, the Kd [4] was 4.8 ± 0.5 nM and the “recognition of nonspecific (NON) sequences” value [5] was “lack of protein-bound DNA”.

B1: FA1-92: trifluoroleucine-substituted A1 protein, 92% replacement of leucine by amino acid analysis (protein)
chain: MRGSHHHHHHGSMASGDLENEYAQLEREVRSLEDEAAELEQKVSRLKNEIEDLAEIGDLNNTSGIRRPAAKLN
For B1, the “Curea, 50% (Cm), midpoint urea denaturation concentration” value (“Curea, 50% (Cm)” for short) [6] was 7 M, the “Tm elevation compared to A1-WT” value ([7]; 10 μM protein, PBS, pH 7.4) was 13 °C and the “ΔCp (1M) heat capacity change upon folding” value [7] was −272 cal/mol-K. For the same molecule, the “free energy of unfolding more favorable than A1-WT” value ([7]; at 37° C.) was 2.4 kcal/mol, the “stabilizing energy per Tfl molecule involved at the helix interface” value ([7]; at 37° C.) was 0.4 kcal/mol and the “ΔHm (1M) enthalpy of folding” value [7] was -77.0 kcal/mol. For the same molecule, the “Tm (1M)” value [7] was 116 °C, the “Tm (10 μM)” value ([7]; PBS, pH 7.4) was 67 °C and the “resistance to thermal and chemical denaturation” value ([7]; thermal and chemical (urea) unfolding studies) was “highly resistant”.

B2: A1-WT: wild type leucine-zipper protein A1 with eight leucine residues, expressed in E. coli (protein)
chain: B1 chain
With B2 the “Curea, 50% (Cm)” value [6] was 2.7 M, the “Curea, 50% (Cm)” value ([6]; listed as Al-WT) was 2.8 M and the “ΔCp (1M) heat capacity change upon folding” value [7] was −252 cal/mol-K. The “ΔHm (1M) enthalpy of folding” value [7] was -70.9 kcal/mol, the “Tm (1M)” value [7] was 103 °C and the “Tm (10 μM)” value ([7]; PBS, pH 7.4) was 54 °C.
